B1: T25-QseE [E. coli K-12] / T18-TM_(oppB)-QseG [E. coli K-12] (parent complex)
chain 1: MKRWPVFPRSLRQLVMLAFLLILLPLLVLAWQAWQSLNALSDQAALVNRTTLIDARRSEAMTNAALEMERSYRQYCVLDDPTLAKVYQSQRKRYSEMLDAHAGVLPDDKLYQALRQDLHNLAQLQCNNSGPDAAAAARLEAFASANTEMVQATRTVVFSRGQQLQREIAERGQYFGWQSLVLFLVSLVMVLLFTRMIIGPVKNIERMINRLGEGRSLGNSVSFSGPSELRSVGQRILWLSERLSWLESQRHQFLRHLSHELKTPLASMREGTELLADQVVGPLTPEQKEVVSILDSSSRNLQKLIEQLLDYNRKQADSAVELENVELAPLVETVVSAHSLPARAKMMHTDVDLKATACLAEPMLLMSVLDNLYSNAVHYGAESGNICLRSSLHGARVYIDVINTGTPIPQEERAMIFEPFFQGSHQRKGAVKGSGLGLSIARDCIRRMQGELYLVDESGQDVCFRIELPSSKNTK
chain 2: CVQNHNKPAIDTPAEEKIPVYQLADYLSTECSDIWALQGKSTETNPLYWLRAMDCADRLMPAQSRQQARQYDDGSWQNTFKQGILLADAKITPYERRQLVARIEALSTEIPAQVRPLYQLWRDGQALQLQLAEERQRYSKLQQSSDSELDTLRQQHHVLQQQLELTTRKLENLTDIERQLSTRKPAGNFSPDTPHESEKPAPSTHEVTPDEP

Variants of: B1
Test: BACTH assay (bacterial two-hybrid, β-galactosidase read-out); reporter strain BTH101; plasmids pYG242/pYG199_1.6; parent: 1.6e+03; read off a plot
chain 1 S58N showed a response of ~250 Miller units.

Variants of: B1
Test: BACTH assay (bacterial two-hybrid, β-galactosidase read-out); reporter strain BTH101; plasmids pYG242/pYG199_TM1; parent: 1.6e+03; read off a plot
chain 1 F19L, chain 1 L21H, chain 1 I22R, chain 1 L23P, chain 1 L24P was tested, and the response was ~70 Miller units.

Source: article PMC6075780, “Interaction of lipoprotein QseG with sensor kinase QseE in the periplasm controls the phosphorylation state of the two-component system QseE/QseF in Escherichia coli” (PLoS Genetics, 2018)
